What was measured:
trcb_xenla fbxw1 = trcb_xenla fbxw1 (UniProt Q91854)
plk1_xenla plk1 = plk1_xenla plk1 (UniProt P70032)
Chain of plk1_xenla plk1 (P70032 whole entry): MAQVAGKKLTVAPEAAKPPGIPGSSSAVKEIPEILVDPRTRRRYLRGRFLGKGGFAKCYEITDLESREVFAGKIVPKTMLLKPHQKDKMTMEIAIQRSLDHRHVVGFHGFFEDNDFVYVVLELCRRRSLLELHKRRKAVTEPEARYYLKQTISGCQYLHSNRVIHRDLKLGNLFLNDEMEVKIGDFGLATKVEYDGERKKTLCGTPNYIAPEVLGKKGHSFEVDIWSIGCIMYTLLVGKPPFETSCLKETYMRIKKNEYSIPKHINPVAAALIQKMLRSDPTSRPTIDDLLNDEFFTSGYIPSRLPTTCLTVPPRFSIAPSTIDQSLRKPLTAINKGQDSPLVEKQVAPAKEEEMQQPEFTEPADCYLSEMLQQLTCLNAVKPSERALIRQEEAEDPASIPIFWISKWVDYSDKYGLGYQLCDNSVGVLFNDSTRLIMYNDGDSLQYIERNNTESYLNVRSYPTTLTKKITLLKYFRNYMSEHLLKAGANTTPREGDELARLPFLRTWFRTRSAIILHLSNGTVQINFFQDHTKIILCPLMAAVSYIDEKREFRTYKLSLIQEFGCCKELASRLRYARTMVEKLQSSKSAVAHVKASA

Chain of Cytoplasmic polyadenylation element-binding protein 1-A (Xenopus laevis (African clawed frog)), Q91572 T125A (Q91572 whole entry T125A): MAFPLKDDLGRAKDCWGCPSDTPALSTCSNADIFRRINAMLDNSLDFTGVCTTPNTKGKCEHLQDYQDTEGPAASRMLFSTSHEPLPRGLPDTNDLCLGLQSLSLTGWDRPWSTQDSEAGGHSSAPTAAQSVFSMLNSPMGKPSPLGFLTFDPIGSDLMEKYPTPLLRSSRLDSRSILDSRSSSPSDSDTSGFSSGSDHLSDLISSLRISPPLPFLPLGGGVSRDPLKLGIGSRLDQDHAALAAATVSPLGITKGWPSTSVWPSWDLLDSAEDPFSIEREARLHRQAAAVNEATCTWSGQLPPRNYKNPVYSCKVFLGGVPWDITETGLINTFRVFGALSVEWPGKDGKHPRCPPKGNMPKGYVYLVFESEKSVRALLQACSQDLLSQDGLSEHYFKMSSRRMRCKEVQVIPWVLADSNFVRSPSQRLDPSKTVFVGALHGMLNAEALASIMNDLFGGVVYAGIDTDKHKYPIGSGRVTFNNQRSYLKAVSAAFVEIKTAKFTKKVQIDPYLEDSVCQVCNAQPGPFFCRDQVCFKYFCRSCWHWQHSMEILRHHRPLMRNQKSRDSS
Chain of trcb_xenla fbxw1 (Q91854 whole entry): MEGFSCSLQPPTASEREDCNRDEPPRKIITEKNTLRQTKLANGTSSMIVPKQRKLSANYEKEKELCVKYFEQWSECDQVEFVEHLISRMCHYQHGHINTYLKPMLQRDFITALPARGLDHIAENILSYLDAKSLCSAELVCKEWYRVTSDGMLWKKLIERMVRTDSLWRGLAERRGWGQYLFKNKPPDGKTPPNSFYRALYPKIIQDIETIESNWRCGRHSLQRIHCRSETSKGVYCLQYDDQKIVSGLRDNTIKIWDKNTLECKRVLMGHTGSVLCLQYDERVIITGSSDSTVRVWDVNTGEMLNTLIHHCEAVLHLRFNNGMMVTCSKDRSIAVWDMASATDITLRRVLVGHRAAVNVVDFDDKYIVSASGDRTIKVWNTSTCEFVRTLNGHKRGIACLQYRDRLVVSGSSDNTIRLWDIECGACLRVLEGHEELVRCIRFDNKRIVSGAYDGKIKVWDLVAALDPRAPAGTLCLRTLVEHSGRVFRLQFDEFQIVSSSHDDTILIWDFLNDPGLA
Chain of Cytoplasmic polyadenylation element-binding protein 1-A (Xenopus laevis (African clawed frog)), Q91572 G192A (Q91572 whole entry G192A): as the sequence (Q91572 whole entry T125A) above, with A125T, G192A counted along it

| effect of a mutation on the interaction (trcb_xenla fbxw1) | effect of a mutation on the interaction (plk1_xenla plk1) | Substance |
| --- | --- | --- |
| decreasing interaction | – | Cytoplasmic polyadenylation element-binding protein 1-A (Xenopus laevis (African clawed frog)), Q91572 G192A |
| – | decreasing interaction | Cytoplasmic polyadenylation element-binding protein 1-A (Xenopus laevis (African clawed frog)), Q91572 T125A |
